Test results reported in paper PMC9482650, “Quantitative fragmentomics allow affinity mapping of interactomes” (Nature Communications, 2022).

Experiments:
Assay in all cases: holdup assay
Design in all cases: key: below the threshold = too weak to quantify, mostly under pKd 3.1 to 4
[1] = biological target: T1, GRIP1_4, Q9Y3R0
T1 sequence (Q9Y3R0 467-571, limits assumed, looked up): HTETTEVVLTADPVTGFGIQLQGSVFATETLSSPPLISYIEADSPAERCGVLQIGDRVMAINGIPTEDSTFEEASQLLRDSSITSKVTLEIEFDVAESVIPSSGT

[2] = biological target: T2, MPP7, Q5T2T1
T2 sequence (Q5T2T1 134-230, limits assumed, looked up): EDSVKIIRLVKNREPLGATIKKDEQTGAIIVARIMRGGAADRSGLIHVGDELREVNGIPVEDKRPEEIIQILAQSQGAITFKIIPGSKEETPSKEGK

[3] = biological target: MAGI2_2, Q86UL8
Chain of MAGI2_2, Q86UL8 (Q86UL8 410-522): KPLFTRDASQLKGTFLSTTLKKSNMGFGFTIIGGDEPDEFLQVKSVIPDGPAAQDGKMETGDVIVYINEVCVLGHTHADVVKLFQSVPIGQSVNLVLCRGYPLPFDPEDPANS

[4] = biological target: PDLIM1, O00151
Chain of PDLIM1, O00151 (O00151 1-87): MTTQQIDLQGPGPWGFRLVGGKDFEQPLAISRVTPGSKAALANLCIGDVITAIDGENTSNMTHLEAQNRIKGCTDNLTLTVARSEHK

[5] = biological target: Inadl_3, Q8NI35
Chain of Inadl_3, Q8NI35 (Q8NI35 359-469): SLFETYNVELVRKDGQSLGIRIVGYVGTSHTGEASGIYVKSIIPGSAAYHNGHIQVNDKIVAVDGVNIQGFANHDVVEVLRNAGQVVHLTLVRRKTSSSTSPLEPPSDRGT

[6] = biological target: MAGI3_2, Q5TCQ9
Chain of MAGI3_2, Q5TCQ9 (Q5TCQ9 398-503): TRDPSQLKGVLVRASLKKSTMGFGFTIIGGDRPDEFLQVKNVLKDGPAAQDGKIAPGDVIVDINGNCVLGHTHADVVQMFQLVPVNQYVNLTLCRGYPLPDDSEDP

[7] = biological target: LIMK2, P53671
Chain of LIMK2, P53671 (P53671 143-248): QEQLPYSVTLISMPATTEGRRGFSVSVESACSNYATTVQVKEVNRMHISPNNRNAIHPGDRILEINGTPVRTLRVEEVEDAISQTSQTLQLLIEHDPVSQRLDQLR

[8] = biological target: T3, PDZRN3_1, Q9UPQ7
T3 sequence (Q9UPQ7 244-349, limits assumed, looked up): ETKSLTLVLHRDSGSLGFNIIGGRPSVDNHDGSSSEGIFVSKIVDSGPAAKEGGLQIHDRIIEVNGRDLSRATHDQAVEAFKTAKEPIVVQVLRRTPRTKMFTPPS

[9] = biological target: T4, TX1BP3, O14907
T4 sequence (O14907 10-122, limits assumed, looked up): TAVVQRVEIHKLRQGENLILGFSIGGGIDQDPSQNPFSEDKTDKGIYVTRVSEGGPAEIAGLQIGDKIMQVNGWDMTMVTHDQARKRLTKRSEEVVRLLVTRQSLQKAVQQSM

[10] = biological target: FRMPD3, Q5JV73
Chain of FRMPD3, Q5JV73 (Q5JV73 12-100): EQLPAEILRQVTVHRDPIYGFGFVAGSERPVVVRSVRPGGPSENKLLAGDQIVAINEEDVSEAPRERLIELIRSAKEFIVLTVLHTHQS

[11] = biological target: T5, DFNB31_3, Q9P202
T5 sequence (Q9P202 811-907, limits assumed, looked up): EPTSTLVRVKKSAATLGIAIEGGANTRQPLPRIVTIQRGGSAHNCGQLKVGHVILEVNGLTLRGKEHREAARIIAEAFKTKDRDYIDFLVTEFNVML

[12] = biological target: T6, MPDZ_5, O75970
T6 sequence (O75970 695-796, limits assumed, looked up): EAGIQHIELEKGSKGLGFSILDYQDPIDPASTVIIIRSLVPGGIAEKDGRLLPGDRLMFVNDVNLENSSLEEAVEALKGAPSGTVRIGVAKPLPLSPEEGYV

[13] = biological target: T7, MPDZ_10, O75970
T7 sequence (O75970 1624-1722, limits assumed, looked up): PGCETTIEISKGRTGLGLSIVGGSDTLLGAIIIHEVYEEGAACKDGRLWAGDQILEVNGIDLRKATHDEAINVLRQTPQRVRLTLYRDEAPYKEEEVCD

[14] = biological target: HTRA1, Q92743
Chain of HTRA1, Q92743 (Q92743 360-477): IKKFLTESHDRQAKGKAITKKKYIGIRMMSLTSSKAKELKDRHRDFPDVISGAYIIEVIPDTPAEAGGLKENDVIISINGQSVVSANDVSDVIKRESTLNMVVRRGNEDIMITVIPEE

[15] = biological target: T8, SNTA1, Q13424
T8 sequence (Q13424 82-180, limits assumed, looked up): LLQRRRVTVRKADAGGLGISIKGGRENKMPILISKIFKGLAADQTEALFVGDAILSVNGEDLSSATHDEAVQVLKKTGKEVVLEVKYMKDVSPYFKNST

[16] = biological target: T9, DFNB31_2, Q9P202
T9 sequence (Q9P202 274-371, limits assumed, looked up): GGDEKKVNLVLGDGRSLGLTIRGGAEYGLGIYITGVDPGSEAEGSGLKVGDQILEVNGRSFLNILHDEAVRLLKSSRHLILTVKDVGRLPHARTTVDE

[17] = biological target: GRIP2_6, Q9C0E4
Chain of GRIP2_6, Q9C0E4 (Q9C0E4 648-740): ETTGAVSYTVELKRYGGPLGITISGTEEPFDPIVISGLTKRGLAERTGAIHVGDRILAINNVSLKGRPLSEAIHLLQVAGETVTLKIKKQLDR

[18] = biological target: TJP1_2, Q07157
Chain of TJP1_2, Q07157 (Q07157 181-274): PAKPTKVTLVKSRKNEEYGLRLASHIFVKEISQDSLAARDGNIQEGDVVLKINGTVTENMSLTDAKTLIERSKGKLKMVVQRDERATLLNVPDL

[19] = biological target: T10, DLG3_2, Q92796
T10 sequence (Q92796 221-321, limits assumed, looked up): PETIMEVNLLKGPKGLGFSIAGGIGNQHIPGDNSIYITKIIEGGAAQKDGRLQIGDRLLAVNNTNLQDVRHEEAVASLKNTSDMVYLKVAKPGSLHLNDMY

[20] = biological target: T11, ARHGAP21, Q5T5U3
T11 sequence (Q5T5U3 45-169, limits assumed, looked up): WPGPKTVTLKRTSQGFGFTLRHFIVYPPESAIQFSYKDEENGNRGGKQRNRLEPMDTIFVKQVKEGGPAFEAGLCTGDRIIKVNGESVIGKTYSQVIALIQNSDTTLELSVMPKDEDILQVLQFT

[21] = biological target: T12, MPDZ_12, O75970
T12 sequence (O75970 1857-1958, limits assumed, looked up): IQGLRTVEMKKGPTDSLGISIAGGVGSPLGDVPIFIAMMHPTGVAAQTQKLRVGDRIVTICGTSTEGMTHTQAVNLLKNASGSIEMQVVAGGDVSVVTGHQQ

[22] = biological target: T13, PDZD2_2, O15018
T13 sequence (O15018 329-429, limits assumed, looked up): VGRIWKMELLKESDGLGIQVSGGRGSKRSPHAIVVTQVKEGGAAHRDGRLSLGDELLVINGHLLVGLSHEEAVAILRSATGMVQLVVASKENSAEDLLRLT

[23] = biological target: Inadl_4, Q8NI35
Chain of Inadl_4, Q8NI35 (Q8NI35 547-651): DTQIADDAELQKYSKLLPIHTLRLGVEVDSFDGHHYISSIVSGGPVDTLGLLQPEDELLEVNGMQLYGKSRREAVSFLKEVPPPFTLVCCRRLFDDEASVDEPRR

[24] = biological target: IL16_1, Q14005
Chain of IL16_1, Q14005 (Q14005 210-306): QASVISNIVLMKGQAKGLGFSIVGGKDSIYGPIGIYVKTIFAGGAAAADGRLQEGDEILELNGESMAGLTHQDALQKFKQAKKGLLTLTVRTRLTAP

[25] = plain residues with an end cap or a label only (N-terminal biotin on a linker: ado-ado)
[26] = plain residues with an end cap or a label only (N-terminal biotin on a linker: ahx)

Measured: pKd

B1: HTR2A, P28223 (peptide)
chain: DGVNEKVSCV
6: [22]; [25]
3.61: [9]; [25]
3.88: [11]; [25]
4.19: [13]; [25]
below the threshold: [1]; [25] | [2]; [25] | [4]; [25] | [5]; [25] | [7]; [25] | [8]; [25] | [10]; [25] | [12]; [25] | [16]; [25] | [17]; [25] | [18]; [25] | [20]; [25] | [21]; [25] | [23]; [25]
4.66: [15]; [25]
4.72: [24]; [25]
4.82: [19]; [25]
4.95: [14]; [25]
4.15: [3]; [25]
4.47: [6]; [25]

B2: SRC, P12931 (peptide)
chain: EPQYQPGENL
below the threshold: [1]; [25] | [2]; [25] | [3]; [25] | [5]; [25] | [6]; [25] | [7]; [25] | [8]; [25] | [9]; [25] | [10]; [25] | [11]; [25] | [12]; [25] | [13]; [25] | [14]; [25] | [15]; [25] | [16]; [25] | [17]; [25] | [18]; [25] | [19]; [25] | [21]; [25] | [22]; [25] | [23]; [25] | [24]; [25]
4: [20]; [25]
3.56: [4]; [25]

B3: TIAM1, Q13009 (peptide)
chain: APSRKLNTEI
below the threshold: [1]; [26] | [2]; [26] | [3]; [26] | [4]; [26] | [5]; [26] | [6]; [26] | [7]; [26] | [8]; [26] | [9]; [26] | [10]; [26] | [11]; [26] | [12]; [26] | [14]; [26] | [15]; [26] | [16]; [26] | [17]; [26] | [18]; [26] | [20]; [26] | [21]; [26] | [22]; [26] | [23]; [26] | [24]; [26]
3.72: [19]; [26]
3.75: [13]; [26]

B4: CGN, Q9P2M7 (peptide)
chain: TESNLQTSSC
3.64: [5]; [26]
4.1: [22]; [26]
3.51: [20]; [26]
below the threshold: [1]; [26] | [2]; [26] | [3]; [26] | [4]; [26] | [6]; [26] | [7]; [26] | [8]; [26] | [9]; [26] | [10]; [26] | [11]; [26] | [12]; [26] | [14]; [26] | [15]; [26] | [16]; [26] | [17]; [26] | [18]; [26] | [19]; [26] | [21]; [26] | [23]; [26] | [24]; [26]
3.9: [13]; [26]
